# From the DeepSol protein solubility set
# Assay: soluble on expression in E. coli; label from the status in PepcDB or PDB records
row,Sequence,soluble on expression in E. coli
1,SANAEVSVPVGDVVVVPTEGNEGENPEDTKTQVILQLQPVQQGIYEAGSENNTAVVAVETHTIHKIEEGIDTGTIEANEDMEIAYPITCGESKAILLWKKFVCPGINVKCVKFNDQLISPKHFVHLAGKSTLKDWKRAIRLGGIMLRKMMDSGQIDFYQHDKVCSNTCRSTKFDLLISSARAPVPGQQTSVVQTPTSADGSITQIAISEESMEEAGLEWNSALTAAVTMATEEGVKKDSEEISEDTLMFWKGIADVGLMEEVVCNIQKEIEELLRGVQQRLIQAPFQVTDAAVLNNVAHTFGLMDTVKKVLDNRRNQVEQGEEQFLYTLTDLERQLEEQKKQGQDHRLKSQTVQNVVLMPVSTPKPPKRPRLQRPASTTVLSPSPPVQQPQFTVISPITITPVGQSFSMGNIPVATLSQGSSPVTVHTLPSGPQLFRYATVVSSAKSSSPDTVTIHPSSSLALLSSTAMQDGSTLGNMTTMVSPVELVAMESGLTSAIQAVESTSEDGQTIIEIDPAPDPEAEDTEGKAVILETELRTEEKVVAEMEEHQHQVHNVEIVVLED,soluble
2,MNQKPTPLMSPPPPAQQNGKDHKEKLHRIEDIMYSDADTFPEFSNRDGSRETVDTCWQLVLIRVPEHPNETHIKTINDAITSEMKATWKIPATSFAYVSAPHIPILQLAYGVAKKHFGEKTAIRSSFMFAEPKNDKFLIAKDSDLKHLKYEVILGASRFCWTKVETHAEMSKRIESTLFELMRVLPNLVLFLGPLAFDVLYETLEMQKRKTIAKPGVVIENFKRENNKWKRVQKHGATSISVPLC,not soluble
3,MMNYELMTTQNAPVKMWTKGVPVEDDARQQLINTAKMPFIFKHIAVMPDVHLGKGSTIGSVIPTKGAIIPAAVGVDIGCGMNALRTSLTAADLPENLADLRSAIEAAVPHGRTTGRGHRDVGAWGNPPANVNEKWAQLEAGYQWLTQKYPRFLNTNNYKHLGTLGTGNHFIEICLDETDRVWIMLHSGSRGIGNAIGTYFIGLAQQEMQEQLETLPSRDLAYFNEGSEYFDDYLKAVHWAQQFASLNREAMMENALAALQRCVEKPSALDMDEINCHHNYVQKEQHFGEEIYVTRKGAVSARRGEFGIIPGSMGAKSFIVRGLGNEESFCSCSHGAGRVMSRTKAKKLFSVDDQIRATAHVECRKDADVIDEIPMAYKDIDAVMAAQSDLVEIMYALRQVVCVKGLEHHHHHH,not soluble
4,MGSDKIHHHHHHMDELYIMNPWWRDPEIINTDRHISMFENSTFKYFPENLFKKIPLNKPGIYTIRGPRQVGKTTFLKLYIRKLLRDGVKPSNIFFFTCDAVKDRFELIETMKAYFQIFERKAGETRYLFIDEITAVEDWQKSIKYLVDIGLLENSLLILTGSSAFDLKRSSERLPGRKGYGEDLVYLPLTFGEFLESLGISVERMSVDDIFLKSEEELRILYLKNSFLKEYFVKYLNTGGFPKVIDVFLKEGKIDEITKGVFRDFILGDAEKYLGSRIKVIEIFKKLPDIVGQRFSWNSLVDIFSGAIESVDTIQKYFEYLGYSFILMNVFFVDISRKTVRLKKQKKTYPIDRVVVDIIEEISGKQIKLPQIVEMLTLRHLMGNGKTLPNGMNLYDGPFFWYSDRGNEVDFVFEHGDSLIPVEINFQNNIHRSDYAGMKKVFKKGIVITQDAIFRDENIVAVPAWLFFAVFEGNE,not soluble
5,MKKGVHLVFILVASLLSSFSVMAQSLQASVNKTEVAKNEVINLRIMADSEVASDAIDFSVLEKDFFLGQPRYGRSSNNINGRKYQRTEWSISIAPMKEGIITIPSFSADGMKTEPIQLKVTANKSAPDLDDLFSFNMSVDNHTLYPQQSANLRMQLIIKADTRRLDNPQVV,not soluble
6,GTIPKPTLWAEPDSVITQGSPVTLSCQGSLEAQEYRLYREKKSASWITRIRPELVKNGQFHIPSITWEHTGRYGCQYYSRARWSELSDPLVLVMTGAYPKPTLSAQPSPVVTSGGRVTLQCESQVAFGGFILCKEGEDEHPQCLNSQPHARGSSRAIFSVGPVSPNRRWSHRCYGYDLNSPYVWSSPSDLLELLVPG,soluble
7,MGSDKIHHHHHHMFRTNPLKIIMLGPSLLQQGGISGYEKLFLEYAPSEIHICHIITHEEGTIAFKIMVFLKAIWKFIWMLISEEIDIVQLEISQRGSVFRQSIMILLAWVFHKPIILHAHGSQFHIFYAGLANWIQKLLSWIFCKCQRLIVLSESWKSFYIDTLGLKSEQVVVFYNPVKVPTEVPSRSFSTKLNLLFLGRIGQRKGAFDLIKAFSSLPTEYQTRSIMVMAGDGDIEKARDLVTTLNLQDYIQLPGWIGSDERDILLSKADIFVLPSYNEGLPLAMLEAMAWELPVIVTPVGGIPEIVTQSENGLIVNPGNVEQLSNAIKSLIENEALRLSLGAKARTSVFPLDIKKHWVDFIDLYNLVLNTMEEHSKG,not soluble
8,MGSDKIHHHHHHMTTINAANAGTYAFDDQFKVNRMGYGVMQLTGPGTWGPYADPENGVKVVKKALEYGVNFFDTADSYGPWFADRYLAAGLKDAANRDQIFISDKVGQTRQGPNVWTPLGEPRYLRQQVEVSMMTLGIDHEDLVFLHRIDPHYSIADQVGELKKLQDEGKIKHIGLSQVTVDQIKEAQQVAKIDAIENLYNVANHGDDDVVDYAASQKMAFLPWFPLATGELAQAGSVLSTMAQKYQVSPAQIALAWLLKRSDNIIPIPGTSSIEHLRDNVAAANVDLTTADFNGLSQLSVK,not soluble
9,MAEMGSKGVTAGKIASNVQKKLTRAQEKVLQKLGKADETKDEQFEQCVQNFNKQLTEGTRLQKDLRTYLASVKAMHEASKKLNECLQEVYEPDWPGRDEANKIAENNDLLWMDYHQKLVDQALLTMDTYLGQFPDIKSRIAKRGRKLVDYDSARHHYESLQTAKKKDEAKIAKAEEELIKAQKVFEEMNVDLQEELPSLWNSRVGFYVNTFQSIAGLEENFHKEMSKLNQNLNDVLVGLEKQHGSNTFTVKAQPSDNAPAKGNKSPSPPDGSPAATPEIRVNHEPEPAGGATPGATLPKSPSQSSLPAVVVETFPATVNGTVEGGSGAGRLDLPPGFMFKVQAQHDYTATDTDELQLKAGDVVLVIPFQNPEEQDEGWLMGVKESDWNQHKELEKCRGVFPENFTERVP,soluble
10,GSASAQSRTLAGGIHATDLNDKSVQRALDFAISEYNKVINKDEYYSRPLQVMAAYQQIVGGVNYYFNVKFGRTTCTKSQPNLDNCPFNDQPKLKEEEFCSFQINEVPWEDKISILNYKCRKV,soluble
11,MSRIIALIISFLLVGCATPPMPAQRIVGEVRMSRPLSRIAHIDVSMFGLYEGKVREVQRTHFETGNLPLFFSIKLNPAQRGEGELYLRSTLSFPERGVQAVAQQKLTGKNKVVLQMIPKTCYPNCQLPNTR,not soluble
12,SADEEEEVKPILQKLQELVDQLYSFRDCYFETHSVEDAGRKQQDVRKEMEKTLQQMEEVVGSVQGKAQVLMLTGKALNVTPDYSPKAEELLSKAVKLEPELVEAWNQLGEVYWKKGDVAAAHTCFSGALTHCRNKVSLQNLSMVLRQLRTDTEDEHSHHVMDSVRQAKLAVQMDVHDGRSWYILGNSYLSLYFSTGQNPKISQQALSAYAQAEKVDRKASSNPDLHLNRATLHKYEESYGEALEGFSRAAALDPAWPEPRQREQQLLEFLDRLTSLLESKGKVKTKKLQSMLGSLRPAHLGPCSDGHYQSASGQKVTLELKPLSTLQPGVNSGAVILGKVVFSLTTEEKVPFTFGLVDSDGPCYAVMVYNIVQSWGVLIGDSVAIPEPNLRLHRIQHKGKDYSFSSVRVETPLLLVVNGKPQGSSSQAVATVASRPQCE,soluble
13,MTHILFDSRRFLQLGAFASLSTALAGAARYVTSTSNNEPADNTPLTIGYVPIAGSAPIAIADALGLFKKHGVNVTLKKYSGWSDLWTAYATEQLDVAHMLSPMTVAINAGVTNASRPTELSFTQNTNGQAITLASKHYGSVNSAADLKGMVLGIPFEYSVHALLLRDYLVSNAVDPIADLELRLLRPADMVAQLTVEGIDGFIGPGPFNERAISNGSGRIWLLTKQLWDKHPCCAVAMAKEWKAEHPTAAQGVLNALEEASAILSNPAQFDSSARTLSQEKYLNQPATLLDGPS,not soluble
14,MLAFIRFLFAGLLLVISHAFAATVQDEHGTFTLEKTPQRIVVLELSFADALAAVDVIPIGIADDNDAKRILPEVRAHLKPWQSVGTRAQPSLEAIAALKPDLIIADSSRHAGVYIALQQIAPVLLLKSRNETYAENLQSAAIIGEMVGKKREMQARLEQHKERMAQWASQLPKGTRVAFGTSREQQFNLHTQETWTGSVLASLGLNVPAAMAGASMPSIGLEQLLAVNPAWLLVAHYREESIVKRWQQDPLWQMLTAAQKQQVASVDSNTWARMRGIFAAERIAADTVKIFHHQPLTVVK,soluble
